The values below come from the supplement of paper PMC11246515.

This data set is described as follows: total protein half-life in vivo (active degradation + dilution); higher = more stable protein.
[1] abbreviates: E. coli NCM3722 delta-clpP delta-lon delta-hslV, growth: N-lim chemostat, doubling time 6 h.
The mark [2] stands for this setting: E. coli NCM3722 delta-clpP, growth: N-lim chemostat, doubling time 6 h.
The mark [3] stands for this setting: E. coli NCM3722 delta-hslV, growth: N-lim chemostat, doubling time 6 h.
Where [4] appears, read: E. coli NCM3722 delta-lon, growth: N-lim chemostat, doubling time 6 h.
Setting [5] is: E. coli NCM3722 delta-smpB, growth: N-lim chemostat, doubling time 6 h.
[6] abbreviates: wild type E. coli NCM3722, growth: C-lim chemostat, doubling time 6 h.
Setting [7] is: wild type E. coli NCM3722, growth: C-lim chemostat, doubling time 12 h.
Setting [8] is: wild type E. coli NCM3722, growth: N-lim chemostat, doubling time 6 h.
Setting [9] is: wild type E. coli NCM3722, growth: N-lim chemostat, doubling time 12 h.
The mark [10] stands for this setting: wild type E. coli NCM3722, growth: P-lim chemostat, doubling time 6 h.
Setting [11] is: wild type E. coli NCM3722, growth: P-lim chemostat, doubling time 12 h.

± gives the standard deviation of the averaged measurements.

As to “MKSNRQARHILGLDHKISNQRKIVTEGDKSSVVNNPTGRKRPAEK”, the “total protein half-life in vivo” value under setting [1] came out at 1.25 ± 0.066 h; the “total protein half-life in vivo” value under setting [2] was found to be 0.873 h; the “total protein half-life in vivo” value under setting [3] was 1.04 ± 0.075 h; the “total protein half-life in vivo” value under setting [4] was determined as 1.37 ± 0.39 h; the “total protein half-life in vivo” value under setting [5] worked out at 0.657 h; the “total protein half-life in vivo” value (wild type E. coli NCM3722, growth: C-lim chemostat, doubling time 3 h) came out at 1.64 ± 0.16 h. The “total protein half-life in vivo” value reads like this: under setting [6], 1.85 h; under setting [7], 1.81 ± 0.55 h; under setting [8], 1.08 h; under setting [9], 1.74 ± 0.51 h; under setting [10], 0.899 ± 0.2 h; under setting [11], 1.34 ± 0.98 h.
As for “MSRTTTVDGAPASDTDKQSISQPNQFIKRGTPQFMRVTLALFSAGLATFALLYCVQPILPVLSQEFGLTPANSSISLSISTAMLAIGLLFTGPLSDAIGRKPVMVTALLLASICTLLSTMMTSWHGILIMRALIGLSLSGVAAVGMTYLSEEIHPSFVAFSMGLYISGNSIGGMSGRLISGVFTDFFNWRIALAAIGCFALASALMFWKILPESRHFRPTSLRPKTLFINFRLHWRDRGLPLLFAEGFLLMGSFVTLFNYIGYRLMLSPWHVSQAVVGLLSLAYLTGTWSSPKAGTMTTRYGRGPVMLFSTGVMLFGLLMTLFSSLWLIFAGMLLFSAGFFAAHSVASSWIGPRAKRAKGQASSLYLFSYYLGSSIAGTLGGVFWHNYGWNGVGAFIALMLVIALLVGTRLHRRLHA”, the “total protein half-life in vivo” value runs as follows: under setting [1], 1.3 h; under setting [2], 1.36 ± 0.35 h; under setting [3], 1.46 ± 0.017 h; under setting [4], 1.1 ± 0.07 h; under setting [5], 2.24 ± 0.1 h; under setting [8], 1.42 ± 0.079 h. For the same sequence, the “total protein half-life in vivo” value under setting [9] was 2.65 ± 0.55 h and the “total protein half-life in vivo” value under setting [11] was 2.5 h.
For the sequence “MDDIVNSVPSWMFTAIIAVCILFIIGIIFARLYRRASAEQAFVRTGLGGQKVVMSGGAIVMPIFHEIIPINMNTLKLEVSRSTIDSLITKDRMRVDVVVAFFVRVKPSVEGIATAAQTLGQRTLSPEDLRMLVEDKFVDALRATAAQMTMHELQDTRENFVQGVQNTVAEDLSKNGLELESVSLTNFNQTSKEHFNPNNAFDAEGLTKLTQETERRRRERNEVEQDVEVAVREKNRDALSRKLEIEQQEAFMTLEQEQQVKTRTAEQNARIAAFEAERRREAEQTRILAERQIQETEIDREQAVRSRKVEAEREVRIKEIEQQQVTEIANQTKSIAIAAKSEQQSQAEARANLALAEAVSAQQNVETTRQTAEADRAKQVALIAAAQDAETKAVELTVRAKAEKEAAEMQAAAIVELAEATRKKGLAEAEAQRALNDAINVLSDEQTSLKFKLALLQALPAVIEKSVEPMKSIDGIKIIQVDGLNRGGAAGDANTGNVGGGNLAEQALSAALSYRTQAPLIDSLLNEIGVSGGSLAALTSPLTSTTPVEEKAE”, the “total protein half-life in vivo” value by setting is: under setting [2], 4.22 h; under setting [5], 3.89 h; under setting [7], 9.53 h; under setting [8], 3.81 h; under setting [10], 6.67 h; under setting [11], 12.3 h.
For “MNPLLTDSRRQALRSASHWYAVLSGERVSPQQEARWQQWYEQDQDNQWAWQQVENLRNQLGGVPGDVASRALHDTRLTRRHVMKGLLLLLGAGGGWQLWQSETGEGLRADYRTAKGTVSRQQLEDGSLLTLNTQSAADVRFDAHQRTVRLWYGEIAITTAKDALQRPFRVLTRQGQLTALGTEFTVRQQDNFTQLDVQQHAVEVLLASAPAQKRIVNAGESLQFSASEFGAVKPLDDESTSWTKDILSFSDKPLGEVIATLTRYRNGVLRCDPAVAGLRLSGTFPLKNTDAILNVIAQTLPVKIQSITRYWINISPL”, the “total protein half-life in vivo” value under setting [5] amounted to 0.672 h.
Regarding “MTDLSHSREKDKINPVVFYTSAGLILLFSLTTILFRDFSALWIGRTLDWVSKTFGWYYLLAATLYIVFVVCIACSRFGSVKLGPEQSKPEFSLLSWAAMLFAAGIGIDLMFFSVAEPVTQYMQPPEGAGQTIEAARQAMVWTLFHYGLTGWSMYALMGMALGYFSYRYNLPLTIRSALYPIFGKRINGPIGHSVDIAAVIGTIFGIATTLGIGVVQLNYGLSVLFDIPDSMAAKAALIALSVIIATISVTSGVDKGIRVLSELNVALALGLILFVLFMGDTSFLLNALVLNVGDYVNRFMGMTLNSFAFDRPVEWMNNWTLFFWAWWVAWSPFVGLFLARISRGRTIRQFVLGTLIIPFTFTLLWLSVFGNSALYEIIHGGAAFAEEAMVHPERGFYSLLAQYPAFTFSASVATITGLLFYVTSADSGALVLGNFTSQLKDINSDAPGWLRVFWSVAIGLLTLGMLMTNGISALQNTTVIMGLPFSFVIFFVMAGLYKSLKVEDYRRESANRDTAPRPLGLQDRLSWKKRLSRLMNYPGTRYTKQMMETVCYPAMEEVAQELRLRGAYVELKSLPPEEGQQLGHLDLLVHMGEEQNFVYQIWPQQYSVPGFTYRARSGKSTYYRLETFLLEGSQGNDLMDYSKEQVITDILDQYERHLNFIHLHREAPGHSVMFPDA [P0ABC9]”, the “total protein half-life in vivo” value is 6.17 ± 0.24 h under setting [1]; 7.418 ± 0.034 h under setting [2]; 5.75 ± 1.3 h under setting [3]; > 8 h under setting [4]; 5.11 ± 0.14 h under setting [5]; 5.56 h under setting [6]. The “total protein half-life in vivo” value under setting [7] was determined as 11.6 ± 2 h; the “total protein half-life in vivo” value under setting [8] was 6.17 h; the “total protein half-life in vivo” value under setting [9] was 9.97 h; the “total protein half-life in vivo” value under setting [10] stood at 6.22 ± 1.3 h; the “total protein half-life in vivo” value under setting [11] came to 13.1 ± 1.3 h.
